Data as given in US20250236644A1, “De Novo Designed Stimulus-responsive Two-state Hinge Proteins” (University of Washington, priority 2024, published 2025).
Substitutions are numbered along the chain they refer to. Numbers in names are those of the source. Each block holds one molecule with its values, some of them ahead of it.

Key:
Assay type in all cases: binding
TAMRA-cs221B = assay: FP titration and kinetics, hinge vs TAMRA-cs221B; settings: for peptide binding: FP; for kon: Effector TAMRA-cs221B, method FP
Chain of TAMRA-cs221B (as listed by the source): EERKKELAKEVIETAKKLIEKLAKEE
Method: (§1) All FP measurements were performed at 25° C. in 96-well plates (Corning 3686) using a Synergy Neo2™ plate reader and a 530/590 nm filter cube. The buffer for all FP measurements was 20 mM Tris-HCl, 100 mM NaCl, 0.05% v/v TWEEN20 at pH 8. Titrations were carried out in 96-well format, with 4 replicates per plate and 24 data points per titration (23 steps of two-fold serial dilution of hinges in the presence of TAMRA-labeled peptide at a constant concentration between 0.1 nM and 1 nM) with a final sample volume of 80 μl per well. Titration plates were incubated overnight at room temperature before measuring to ensure complete equilibration. The polarization signal S (as calculated by the Neo2™ software) was fitted to the equation
(§2) where fAB is the fraction of peptide that is bound, Atot is the absolute hinge concentration, Btot is the absolute peptide concentration, S0 is the baseline polarization of free peptide, and S1 is the change in polarization upon complex formation.
(§3) Fitting was performed using the scipy.optimize.curve_fit python function (53). Uncertainties for KD values are standard deviation errors calculated from the covariance matrix of the fits. In cases where the fitted KD was lower than the concentration of the labeled peptide Btot, we report the KD as KD<Btot.
(§4) For FP kinetics experiments a 2× peptide solution and 8 different 2× hinge solutions at different concentrations were prepared separately. 40 μl of each hinge solution were mixed with 40 μl peptide solution using a multichannel pipet and the measurement was started immediately after mixing. Polarization signals S at each concentration were fitted individually to the equation
(§5) where S0 is the amplitude, S1 is the polarization at equilibrium, kapp is the apparent rate constant, t is the time after start of the measurement, and t0 is the dead time between mixing and start of the measurement. For each hinge-peptide pair, the apparent rate constants for 8 different concentrations are fitted to the equation
(§6) where koff and kon are observed off- and on rates and Atot is the absolute hinge concentration.

TAMRA-cs201B = assay: FP titration and kinetics, hinge vs TAMRA-cs201B
Chain of TAMRA-cs201B (as listed by the source): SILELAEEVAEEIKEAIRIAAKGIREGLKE
Method: as §1, §2, §3, §4, §5, §6

TAMRA-cs074B = assay: Fluorescence polarization (FP) titration and kinetics, hinge vs TAMRA-cs074B; settings: 1 nM peptide cs074B, varying hinge; FIG. 10
Chain of TAMRA-cs074B (as listed by the source): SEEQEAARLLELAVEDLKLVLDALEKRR
Method: as §1, §2, §3, §4, §5, §6

peptide binding (TAMRA-cs221B; oxidizing conditions (disulfide formed)): only weak residual binding
peptide binding (TAMRA-cs221B; upon addition of reducing agent DTT): fully restored
B1: cs221_lockedX: cs221 variant with disulfide that locks state X, SEQ ID NO:19 (protein)
chain: MSGEMKEEIRRLAEELRERTKDEEVRELAREAARLAEESDDEEVKEVVKKALEAALKSKDEEVIRLLLLAAVCAAAAARSGSPEEKLEIAKKALELAMKSKDEEVIRLALLAAVLACRSDDEEVLKKVKEALEKAMESKDVEEIRERLREAVEVARAGSGSHHWGSTHHHHHH

B2: cs221_V111L: hinge cs221 with point mutation V111L (protein)
chain: B1 chain with C73L, V114L, C117A
kon (TAMRA-cs221B): 24300 M⁻¹ s⁻¹

B3: cs221_V111L_A111T: state Y-stabilizing double mutant of hinge cs221 (protein)
chain: B1 chain with C73L, V114L, C117T
kon (TAMRA-cs221B): 76200 M⁻¹ s⁻¹

B4: cs221_A114T: hinge cs221 with point mutation A114T (protein)
chain: B1 chain with C73L, C117T
kon (TAMRA-cs221B): 27700 M⁻¹ s⁻¹

B5: cs221: designed hinge protein, SEQ ID NO:10 (protein)
chain: B1 chain with C73L, C117A
kon (TAMRA-cs221B): 3400 M⁻¹ s⁻¹

B6: cs221_lockedY: cs221 variant with disulfide that locks state Y, SEQ ID NO:20 (protein)
chain: B1 chain with L69C, C73L, L110C, C117A
kon (TAMRA-cs221B): 790000 M⁻¹ s⁻¹

B7: cs221_A73E: hinge cs221 with point mutation A73E (protein)
chain: B1 chain with C73L, A76E, C117A
kon (TAMRA-cs221B): 1900 M⁻¹ s⁻¹

B8: cs221_L66T: hinge cs221 with point mutation L66T (protein)
chain: B1 chain with L69T, C73L, C117A
kon (TAMRA-cs221B): 2700 M⁻¹ s⁻¹

binding in FP titration (TAMRA-cs201B; 1 nM peptide cs201B, varying hinge, FIG. 10): still binds
binding in FP titration (TAMRA-cs221B; 1 nM peptide cs221B, varying hinge, FIG. 10): weaker than the new target
binding in FP titration (TAMRA-cs074B): most strongly
B9: csw20: cs201-derived hinge redesigned to bind peptide cs074B, SEQ ID NO:18 (protein)
chain: MSGMEEVKELVEKAEELAKEAEELIKKAKKTGNPELLKEALRKLKEAVELAKEAVELDPEHEEAIELLARLAEKLLEVAKLLIELAKKTGNPELLKEALRALKEAREALRLAAEHAPEDAKLLARLAARLAELALLIAKILIELAKKTGNPELLLKALKVLTLAVEAVEAALEADPRLKEAVRVAKELAEVLKELAKLAKELAKKTGNEELKEAAKEAEEVAKRAEELAREAEGSGSHHWGSTHHHHHH

B10: cs201: designed hinge protein, SEQ ID NO:7 (protein)
chain: MSGDEEVQEAVERAEELREEAEELIKKARKTGDPELLRKALEALKEAVRAVREAIKRNPDNEEAIKTALRLARELRKVAKELIERARKTGDAELLKKALEAARVAVEAVRLAAEYNKENAEKMAELLVELAELAREVADVLIELAEKTGDPELLKKALEVLEEAVEAVRLAIEYDPDHEEAVETAKRLAEELRKVAELLEERAKETGDPELQELAKRAKEVADRARELAKKSNGSGSHHWGSTHHHHHH
kon (TAMRA-cs201B; Effector TAMRA-cs201B, method FP): 6700 M⁻¹ s⁻¹
